PMC12401969, “The gut microbiota protein BOC1 exhibits immune checkpoint inhibitor-like activity by inhibiting myeloid-derived suppressor cell differentiation” (Frontiers in Immunology, 2025)

Columns and labels:
[1] = molecular target: T1, biotinylated CD200R1 (UniProt Q8TD46 29-265, biotin (site not stated)); assay: AlphaScreen or HTRF; AlphaLISA; 3 nM CD200R1-(biot) with a dose response of His-tagged BOC1, its mutants, CD200 or P352 (0.1 to 300 nM by the legend, 0.1 to 100 nM by the table's footnote); fit 'One site-total' (GraphPad Prism)
T1 construct: CD200R1 (CD200 receptor 1), soluble biotinylated protein; Held on streptavidin Donor beads in the AlphaLISA; also called CD200R1-(biot)
T1 sequence (looked up): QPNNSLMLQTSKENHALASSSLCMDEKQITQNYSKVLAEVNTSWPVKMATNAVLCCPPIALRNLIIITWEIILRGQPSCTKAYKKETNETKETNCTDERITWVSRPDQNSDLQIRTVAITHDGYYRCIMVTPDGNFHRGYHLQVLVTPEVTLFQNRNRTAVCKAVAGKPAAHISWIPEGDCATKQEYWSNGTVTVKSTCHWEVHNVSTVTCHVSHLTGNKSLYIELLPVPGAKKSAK

[2] = molecular target: T1, biotinylated CD200R1; assay: AlphaScreen or HTRF; AlphaLISA; 3 nM CD200R1-(biot) with a dose response (0.1 to 100 nM) of the His-tagged protein; fit 'One site-total' (GraphPad Prism)
[3] = molecular target: CD200R1 on human monocytes, MoDCs and MDSCs (human (endogenous in primary monocytes, MoDCs, MDSCs)) (UniProt Q8TD46)
Sequence of CD200R1 on human monocytes, MoDCs and MDSCs (human (endogenous in primary monocytes, MoDCs, MDSCs)) (Q8TD46 25-348): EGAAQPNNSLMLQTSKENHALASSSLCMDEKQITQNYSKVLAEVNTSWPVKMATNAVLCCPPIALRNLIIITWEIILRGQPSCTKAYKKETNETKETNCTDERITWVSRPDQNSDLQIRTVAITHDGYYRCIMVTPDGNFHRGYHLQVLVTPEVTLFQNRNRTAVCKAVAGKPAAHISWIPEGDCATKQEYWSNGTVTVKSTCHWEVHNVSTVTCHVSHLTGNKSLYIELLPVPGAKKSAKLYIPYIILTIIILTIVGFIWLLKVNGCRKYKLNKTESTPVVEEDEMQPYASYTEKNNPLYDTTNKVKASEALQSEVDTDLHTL

BOC1-m2 (Ser34) (natural protein) gave a Kd [1] of 2.78 nM.

For BOC1-m1 (Glu19) (natural protein), the Kd [1] was 0.96 nM.

BOC1-His (natural protein) showed a Kd [2] of 0.38 nM, a Kd [1] of 0.38 nM and an inhibition of the differentiation of human monocytes into MDSCs (rhIL-6 + rhGM-CSF, 7 days; BOC1 at 1, 10, 50 nM), CD14+CD11b+CD33+HLA-DRlow cells by flow cytometry [3] of 90%.

B1: CD200-His (ligand, UniProt P41217 31-232, looked up)
chain: QVQVVTQDEREQLYTPASLKCSLQNAQEALIVTWQKKKAVSPENMVTFSENHGVVIQPAYKDKINITQLGLQNSTITFWNITLEDEGCYMCLFNTFGFGKISGTACLTVYVQPIVSLHYKFSEDHLNITCSATARPAPMVFWKVPRSGIENSTVTLSHPNGTTSVTSILHIKDPKNQVGKEVICQVLHLGTVTDFKQTVNKG
notes: CD200 (OX-2), soluble His-tagged protein; Held on anti-6His Acceptor beads in the AlphaLISA; also called His-tagged CD200
With B1 the Kd ([2]; both partners purified) was 1.56 ± 0.3 nM and the Kd ([1]; both partners purified) was 0.95 ± 0.27 nM.
